Data from PMC2241918.
Like-named read-outs stand apart in the source and are kept apart here. Each block holds one molecule with its values, some of them ahead of it.

What was measured:
[1] = biological target: Cfr42I restriction endonuclease (Citrobacter freundii RFL42); test: AUC
[2] = biological target: T1, Cfr42I restriction endonuclease (Citrobacter freundii RFL42, UniProt B0LL99 1-216); test: EMSA
T1 sequence: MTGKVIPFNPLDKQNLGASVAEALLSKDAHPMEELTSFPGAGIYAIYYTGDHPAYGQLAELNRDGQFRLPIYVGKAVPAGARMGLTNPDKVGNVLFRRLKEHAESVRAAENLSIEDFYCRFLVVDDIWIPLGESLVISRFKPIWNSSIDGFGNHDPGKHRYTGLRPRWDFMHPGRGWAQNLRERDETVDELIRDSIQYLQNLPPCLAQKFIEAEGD

[3] = biological target: T1, Cfr42I restriction endonuclease; test: EMSA; remark: listed apart in the source

stoichiometry N [1]: 4
Molecule: Cfr42I restriction endonuclease (enzyme)

B1: 16/16 (dsDNA)
DNA 1: CGCCACCGCGGTGGCG
DNA 2: CGCCACCGCGGTGGCG
binding result [2]: binds

B2: 30/30 (dsDNA)
DNA 1: AGACCCACGCCACCGCGGTGGAGATTACGG
DNA 2: CCGTAATCTCCACCGCGGTGGCGTGGGTCT
binding result [3]: binds
